# According to the RNAGym collection of RNA variant scans (doi:10.1073/pnas.2313332121):
# This sample holds only a part of the variants without activity.
# B1: TPR 5TU (parent)
# chain: GGAUCUUCUCGAUCUAACAAAAAAGACAAAUCUGCCACAAAGCUUGAGAGCAUCUUCGGAUGCAGAGGCGGCAGCCUUCGGUGGCGCGAUAGCGCCAACGUUCUCAACUAUGACACGCAAAACGCGUGCUCCGUUGAAUGGAGUUUAUCAUG
# Variants of: B1
# Assay: polymerase ribozyme fitness, log enrichment relative to wild type (log ratio); higher = more active; in vitro selection for triplet polymerase activity
# Outline: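 Streptavidin-bead capture of gel-excised extended constructs, followed by RT-PCR, closed a single triplicate in vitro selection round. That round began by annealing PCR-built, transcribed mutant libraries of each subunit of a heterodimeric triplet polymerase ribozyme with a biotinylated primer, the partner subunit and triplets, then incubating them frozen at −7 °C. After Illumina sequencing of inputs and outputs, genotypes needed ≥10 input reads and ≥1 read per output. Fitness is the base-2 logarithm of genotype enrichment over wild-type enrichment, using inverse-variance-weighted replicate averages.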
row,Variant,polymerase ribozyme fitness (log ratio)
1,C38G C123A,-0.288
2,A37U U101G U134G G141A,-4.08
3,C38G U146C,-0.518
4,C38U A39C U61G G124C,-3.96
5,A37U U55G A60G C85G A107C C131U,≤ -4.2
6,C38A G84A G86C G117U,≤ -4.2
7,C38G G133C A147C,-2.55
8,C38A C43A U55A C87U G117A,≤ -4.2
9,C38G A73U C95A U146G,-2.85
10,A37U A52C A73U G86A C96A C108G G133A G141A,≤ -4.2
11,C38G G58C G84A A119U,-0.795
12,A37U C85A C93U G141C A147C,≤ -4.2
13,C38G C75U C93G,-4.16
14,C38G A89C C93A C95G U109C,≤ -4.2
15,C38G C54G C76G A107U U146G,≤ -4.2
16,C38A A47G U55A U56C A60G,-2.08
17,C38A C118U A120C G141A,-0.525
18,C38G G92A C105G,≤ -4.2
19,C38U A52G C57U G67U A89U G92A,≤ -4.2
20,C38U A47C U53A A142C,-3.39
21,A37U U135A,-2.34

row,Variant,polymerase ribozyme fitness (log ratio)
1,A37U C75U G83A A98U,-2.88
2,C38G C54A G74U A106U G140U,≤ -4.2
3,C38A U56G C93G C95A,≤ -4.2
4,C38A G94U G143U,≤ -4.2
5,C38A A64G C69G C87U U134A U151C,≤ -4.2
6,A37U A121G G152U,-3.84
7,C38G G42C U82G G86C G141C U144G,≤ -4.2
8,C38A U55A A106C G117A U146A,-1.67
9,A37U C75A C85U G112C G124C C132G A142G U145A,≤ -4.2
10,C38A C57G U77G C79U A91G,≤ -4.2
11,C38A G48C G71U,≤ -4.2
12,C38A C85A U144C,-0.839
13,C38G C43U G81U G86U A98G C103G A150G U151C,≤ -4.2
14,A37U C38U C76G C93U C96A C118U G143U,≤ -4.2
15,C38G G42U G68A U77A C96U G141U,≤ -4.2
16,C38A U55A C85A,-2.66
17,C38G G140C,-4.11
18,C38U A41G G58A,1.52
19,C38A C93A G143U,-4.12
20,A37U G94A,-1
21,A37U A115C A119C,-2.95

row,Variant,polymerase ribozyme fitness (log ratio)
1,A37U U56A C99U G143U,-3.88
2,A37U G84A U102C C123G,-4.19
3,C38G C85U A89C,-1.86
4,C38G U56A G86U U130A,≤ -4.2
5,C38A C96G,-0.458
6,C38U A41C G48A C51A G84C G141C,≤ -4.2
7,C38A C63A C95U A106G,-1.81
8,C38U A52G C93G G117U,-3.91
9,C38A U53A C63U G80A C95A,≤ -4.2
10,C38U A40C G81A A91G C125G,-3.83
11,A37U U45A G46C C85U C105U U144A,≤ -4.2
12,C38G A120U G140C A142C,≤ -4.2
13,A37U A66G C149U G152C,≤ -4.2
14,C38G A41G U55A G83A G143A,-1.78
15,C38A U55A U135A U146C,-1.06
16,A37U G92C G133C,-3.52
17,C38G G42C G71C C95A C96A,≤ -4.2
18,A37U U77G C96A A106G,≤ -4.2
19,C38U A52G A73U G152U,-4.12
20,C38A G94A C123U,-0.611
21,C38A C63G A150G,-3

row,Variant,polymerase ribozyme fitness (log ratio)
1,C38A G58U C95G,-1.52
2,C38A G42C U55G C69U U90G U146C,≤ -4.2
3,C38G C85A C116A A120G,-2.28
4,C38U A60U C87U C95G U135A,≤ -4.2
5,A37U U78G U90C U101G U104G,≤ -4.2
6,C38A U55A G94U C99G,-3.88
7,A37U G86U,-3.44
8,A37U G80C G81C U102A A110U C118G A120U G133U,≤ -4.2
9,C38A A40U G48U C87G C99U G124A G140C,≤ -4.2
10,C38A C76A C93U G117A,-1.25
11,A37U A142G G152U,-4.13
12,C38G U56G C72A A91U A107C G117A U148A,≤ -4.2
13,C38A U148A,-4.04
14,C38A U56A,-0.602
15,A37U A52G C76U C95A,-2.41
16,A37U C85G C125U G141A,≤ -4.2
17,A37U U134G,-2.86
18,C38A C87A,≤ -4.2
19,C38U A41U G94A,-1.15
20,A37U G42A C85A A138G,≤ -4.2
